According to PMC3605151, “The Common Structural Architecture of Shigella flexneri and Salmonella typhimurium Type Three Secretion Needles” (PLoS Pathogens, 2013):

Target: the molecule itself
Test: in vitro polymerisation into needles, seen by transmission electron microscopy and solid-state NMR; purified subunit polymerised at 0.2 mM, 37°C, sixteen days; needles ultra-centrifuged for magic-angle spinning solid-state NMR at 5.5°C

B1: MxiH, wild-type Shigella flexneri T3SS needle subunit (recombinant, His tag cleaved) (natural protein)
chain: GHMSVTVPDKDWTLSSLSETFDDGTQTLQGQLTSALNALAENPSNPQLLAEYQSKLSEYTLYRNAQSNTVKVIKDVDAAIIQNFR
modifications: 15N and 13C isotope labelling
notes: non-native N-terminal residues glycine and histidine left after cleavage by tobacco etch virus protease (told in words); MxiH, T3SS needle subunit, Shigella flexneri serotype 6, residues Met1 to R83; Helical homopolymer (needle); also called WT MxiH; WT Shigella T3SS needles; source: polymerized in vitro; not shown: hepta-Histidine (His) tag, N-terminal, cleaved
B1: binds.
